Results published in patent US20230399394A1 (SUNSHINE GUOJIAN PHARMACEUTICAL SHANGHAI, published 2023).

Experiments:
Human IL-33-his [1] = target: T1, Human IL-33-his (human, UniProt O95760 112-270, biotinylated with EZ-Link NHS-Biotin where used as IL-33-his-biotin); assay: cell-based or functional assay
T1 sequence: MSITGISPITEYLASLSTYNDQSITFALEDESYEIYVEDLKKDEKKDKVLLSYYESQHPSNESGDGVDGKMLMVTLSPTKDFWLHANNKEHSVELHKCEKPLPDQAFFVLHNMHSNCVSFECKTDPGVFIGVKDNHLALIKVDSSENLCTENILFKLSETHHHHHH

Human IL-33-his [2] = target: T1, Human IL-33-his; assay: SPR Biacore 8K as Example 14, antibody captured, antigen as analyte; human IL-33 as the control in the cross-reactivity run of Table 3
Protocol: (§1) A chip with covalently coupled Protein A/G (purchased from GE Healthcare, catalog number BR-1005-30) was used to capture each antibody to be tested, and the relevant operating parameters were as follows: The antibody concentration was […], the contact time was 75 s, the flow rate was […], and the regeneration contact time was 30 s. The IL-33-his antigen was diluted with HBS-EP pH7.4 buffer solution (purchased from GE Healthcare, catalog number BR-1006-69). The maximum concentration was 50 nM, and diluted to 0.39 nM by two-fold dilution. Duplicate wells and 0 concentration point well were set, and 6M guanidine hydrochloride solution was used as the regeneration buffer. The sample was injected on Biacore 8K according to the following parameters, the binding time was 180 s, the dissociation time was 900 s, the flow rate was 30 μL/min, and the regeneration contact time was 30 s. After running, Biacore 8K Evaluation Software was used to analyze the data according to the “1:1 binding kinetics model”, and the binding kinetics parameters of each antibody to IL-33 were obtained.
The experimental methods were referred to Example 14, in which the antigens cynomolgus IL-33 protein (purchased from Sino catalog number 90912-CNAE) and mouse IL-33 protein (purchased from R&D, 3626-ML-010/CF) were used, and human IL-33 protein was used as the control. […]

Human IL-33-his [3] = target: T1, Human IL-33-his; assay: ELISA as Example 9, IL-33-his-biotin on streptavidin plate
Human IL-33-his [4] = target: T1, Human IL-33-his; assay: SPR Biacore 8K, antibody captured on Protein A/G chip, IL-33-his as analyte, 1:1 model
Protocol: as §1

Human IL-33-his [5] = target: T1, Human IL-33-his; assay: competition ELISA as Example 10, ST2-Fc on plate; competitor ST2-Fc
Protocol: (§2) ST2-Fc protein was diluted to 1 μg/mL with ELISA coating solution to coat ELISA plate with 100 μL/well. The plate was placed in a wet box at 4° C. for 16 h for coating. The ELISA plate was washed 3 times with PBST, and then was blocked with 2% BSA prepared in PBS at 200 μL/well at room temperature for 2 h. The plate was washed once with PBST, and was patted dry to remove the excess blocking solution. Each monoclonal antibody was diluted with 1% BSA prepared in PBST in a 3-fold gradient. The highest concentration of antibody was 10 μg/mL, and the antibody was diluted for 11 gradients. The diluted antibody was mixed 1:1 with 10 ng/ml IL-33-his-biotin, and then the mixture was added into the ELISA well at 100 μL/well. The plate was incubated at room temperature for 1 h. Each concentration was added to duplicate wells in parallel (maximum final concentration of antibody was […], final concentration of IL-33-his-biotin was 5 ng/mL). Unbound or non-specifically bound primary antibodies were washed out. According to the instructions of the antibody, HRP labeled streptavidin secondary antibody was diluted to an appropriate concentration with antibody diluent solution, then it was added to ELISA plate with 100 μL/well, and was incubated at room temperature for 1 h. The ELISA plate was washed with PBST for 5 times, and was patted dry on absorbent paper to remove excess liquid. TMB developing solution was added with 100 μL/well for development to an appropriate degree. 2M H₂SO₄ was added with 70 μL/well to terminate development, and the absorbance was measured at 450 nm on a multifunctional microplate reader. The data were analyzed.
The blocking effect of the above humanized antibodies on the binding of IL-33 to its receptor ST2 was determined by the ELISA method, and the relevant experimental methods were referred to Example 10.

Mouse IL-33 protein = target: T2, Mouse IL-33 protein (mouse, UniProt Q8BVZ5 109-266); assay: SPR Biacore 8K as Example 14, antibody captured, antigen as analyte
T2 construct: Bought protein
T2 sequence (looked up): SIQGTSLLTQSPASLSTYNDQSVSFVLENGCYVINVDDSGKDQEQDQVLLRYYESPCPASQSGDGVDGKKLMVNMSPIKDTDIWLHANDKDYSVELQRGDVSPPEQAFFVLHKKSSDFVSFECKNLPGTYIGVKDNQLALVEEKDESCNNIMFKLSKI
Protocol: as §1
(§3) The experimental methods were referred to Example 14, in which the antigens cynomolgus IL-33 protein (purchased from Sino catalog number 90912-CNAE) and mouse IL-33 protein (purchased from R&D, 3626-ML-010/CF) were used, and human IL-33 protein was used as the control. Both 864F3-Hu4 and 874F7-Hu1 cross-react with cynomolgus IL-33 protein, and are consistent with the characteristics of each antibody binding to human IL-33 protein.

Cynomolgus IL-33-his = target: T3, Cynomolgus IL-33-his (cynomolgus, UniProt A0A2K5W3I1 112-269, biotinylated in the ELISA of Example 6); assay: as above
T3 construct: Bought protein; also called cynomolgus IL-33 protein; Cynomolgus monkeys IL-33
T3 sequence: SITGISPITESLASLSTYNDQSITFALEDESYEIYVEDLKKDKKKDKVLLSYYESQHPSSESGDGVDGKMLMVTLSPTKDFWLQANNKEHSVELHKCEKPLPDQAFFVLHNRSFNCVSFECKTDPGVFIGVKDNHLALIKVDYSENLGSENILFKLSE
Protocol: as §1, §3

Human IL-33-his [6] = target: T1, Human IL-33-his; assay: as above
Protocol: as §1, §3

Human IL-33-his [7] = target: T1, Human IL-33-his; assay: competition ELISA, antibody mixed with IL-33-his-biotin, ST2-Fc on plate; competitor ST2-Fc
Protocol: as §2

Human IL-33-his [8] = target: T1, Human IL-33-his; assay: ELISA as Example 9, IL-33-his-biotin on streptavidin plate; run with Hu3, Hu4, Hu5
Protocol: (§4) SA protein was diluted to 2 μg/mL to coat ELISA plate at 100 μL/well overnight at 4° C. The plate was washed with PBST (PBS containing 0.05% Tween20) for 3 times, and blocked with 2% BSA prepared in PBS at 200 μL/well, at room temperature for 2 h. After the plate was washed twice with PBST, IL-33-his-biotin protein was diluted to 1 μg/mL with 1% BSA prepared in PBST, and was added to ELISA plate at 100 μL/well. The plate was incubated at room temperature for 1 h, and each monoclonal antibody was diluted with 1% BSA prepared in PBST in a 3-fold gradient. The highest concentration of antibody was 10 μg/mL, and the antibody was diluted for 12 gradients. Each diluted monoclonal antibody was added to ELISA wells with 100 μL/well, and the plate was incubated at room temperature for 1 h. Each sample was added to duplicate wells in parallel. The plate was washed with PBST for 3 times, and HRP-anti human IgG Fc secondary antibody prepared with PBST was diluted at an appropriate ratio, and was added to ELISA wells at 100 μL/well. The plate was incubated at room temperature for 1 h. After washing with PBST for 3 times, TMB developing solution was added at 100 μL/well. […] Each reaction solution was shaken uniformly and OD450 nm was read on a microplate reader. The data was analyzed and EC₅₀ was calculated.

Human IL-33-his [9] = target: T1, Human IL-33-his; assay: ELISA as Example 9, IL-33-his-biotin on streptavidin plate; run with HuG, Hu1, Hu2
Protocol: as §4

Human IL-33-his [10] = target: T1, Human IL-33-his; assay: ELISA, IL-33-his-biotin on streptavidin plate, anti-human Fc detection
Protocol: SA protein was diluted to 2 μg/mL to coat ELISA plate at 100 μL/well overnight at 4° C. The plate was washed with PBST (PBS containing 0.05% Tween20) for 3 times, and blocked with 2% BSA prepared in PBS at 200 μL/well, at room temperature for 2 h. After the plate was washed twice with PBST, IL-33-his-biotin protein was diluted to 1 μg/mL with 1% BSA prepared in PBST, and was added to ELISA plate at 100 μL/well. The plate was incubated at room temperature for 1 h, and each monoclonal antibody was diluted with 1% BSA prepared in PBST in a 3-fold gradient. The highest concentration of antibody was 10 μg/mL, and the antibody was diluted for 12 gradients. Each diluted monoclonal antibody was added to ELISA wells with 100 μL/well, and the plate was incubated at room temperature for 1 h. Each sample was added to duplicate wells in parallel. The plate was washed with PBST for 3 times, and HRP-anti human IgG Fc secondary antibody prepared with PBST was diluted at an appropriate ratio, and was added to ELISA wells at 100 μL/well. The plate was incubated at room temperature for 1 h. After washing with PBST for 3 times, TMB developing solution was added at 100 μL/well. When the development met expectations, 2M H₂SO₄ was added to terminate the chromogenic reaction at 70 μL/well. Each reaction solution was shaken uniformly and OD450 nm was read on a microplate reader. The data was analyzed and EC₅₀ was calculated.

B1: 864F3-Hu4 (antibody, human IgG4 S228P, kappa, V domains shown)
VH: QVQLQESGPGLVKPSETLSLTCTVSGFSLSKYGVHWIRQPPGKGLEWIGVLRAGGTISYNSALMSRVTISEDISKSQVSLKLSSVTAADTAVYYCARDHYYYSSFGGFASWGQGTLVTVSS
VL: DIQMTQSPSSLSASVGDRVTITCLASQTIATWLAWYQQKPGKSPKLLIYAATRLADGVPSRFSGSGSGTDFTLTISSLQPEDFATYYCQQLYNTPYTFGQGTKVEIKR
notes: Humanized; also called humanized antibody 864F3-Hu4
Human IL-33-his [1]
  IC50 of inhibition of IFNγ secretion by NK cells induced by IL-33: 0.904 nM
  IC50 of inhibition of IL-5 secretion of KU812 cells induced by IL-33: 27.6 nM
  IC50 of inhibition of IL-13 secretion of KU812 cells induced by IL-33: 14.7 nM
  IC50 of the inhibitory effect on IL-6 expression in HUVEC cells induced by IL-33: 0.073 nM
  IC50 of the inhibitory effect on the IFN-γ secretion of PBMC induced by IL-33: 1.22 nM
Human IL-33-his [2]
  Kd: 0.552 nM
Human IL-33-his [3]
  EC50: 0.135 nM
Human IL-33-his [4]
  Kd: 1.38 nM
  koff: 0.000447 s⁻¹
  kon: 323000 M⁻¹ s⁻¹
Human IL-33-his [5]
  IC50: 0.512 nM
Mouse IL-33 protein
  Kd: 190 nM
  koff: 0.0205 s⁻¹
  kon: 108000 M⁻¹ s⁻¹
Cynomolgus IL-33-his
  Kd: 0.637 nM
  koff: 0.000245 s⁻¹
  kon: 385000 M⁻¹ s⁻¹
Human IL-33-his [6]
  koff: 0.000149 s⁻¹
  kon: 270000 M⁻¹ s⁻¹

B2: 864F3-ch2 (antibody, human IgG4 S228P, kappa, V domains shown)
VH: QVHLKESGPGLVAPSQSLSITCNVSGFSLSKYGVHWIRQTPGRGLDWLGVLRAGGTISYNSALMSRLSISEDISKSQVFLKMNDLQTDDSAIYFCARDHYYYSSFGGFASWGQGTLVTVSA
VL: DIQMTQSPASQSASLGESVTITCLASQTIATWLAWYQQKPGKSPQLLIYAATRLADGVPSRFSGSGSGTEFSFKISSLQAEDFVIYYCQQLYNTPYTFGGGTKLEIKR
notes: Chimeric: human IgG4 (S228P) and human kappa constant regions; also called chimeric antibody 864F3-ch2
Human IL-33-his [7]
  IC50: 0.58 nM
Human IL-33-his [8]
  EC50: 0.124 nM
Human IL-33-his [9]
  EC50: 0.169 nM
Human IL-33-his [10]
  EC50: 0.173 nM
